Reference: article PMC10743851

Target: actin (of the actin-chitin affinity column)
Assay: sequential dual-affinity chromatography; DBP of donor eluted from the 25-OH-D3/Sepharose column, loaded on the Actin/chitin column

- percent bound: < 10%
Substance: vitamin D3-binding protein (DBP) of donor (from UniProt P02774 17-474) (natural protein)
